Experimental data from the NTF2 design screens of Basanta et al. (2020).

Assay: protease stability score; higher = more stable; yeast display proteolysis, trypsin and chymotrypsin;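 further: log10 excess protease needed over predicted unfolded state with 0 meaning unfolded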

| Sequence | protease stability score |
| --- | --- |
| EEEQLKILQELRKALQDNDSERMKELFDEDVKVQVGDKTITGREKVVDDLRRKAEEQRIQYVTMSARAENGHITVRLQFVNTHNGRPHRRERKLDITLHNGKFKSARYDNDG | 0.842 |
| EEEQLKTVKQWQENEKTGNEEELKKQADPNAKFRIGDHEVRGMENYAHDVIRRVKDARVDYETISHDVNGDRVVIRAVYRMNHNGRPSSYEYTVHYEMHNGKMKNVTVNKRQ | 0.041 |
| EEEQQKVLEELFRVLQEGDEKRAIKLADPNAKFNVGDKQYNGMEEYARSVATEIRNIRVEIETMDARVQGDHVQVNIVVNYKINGQPFRMTIKVRANVHNGQVHELNMHVDEDQQRKLKT | 0.014 |
| EEERDKFAKILLHAILTGNEEQFKRLADPNATFNIGDRKIHGMERYTKQMKQEVDRIKIKVESVKISVSGNKITIDMVATFNVNGQPVTIRFVLDVTIKNGRVSELVLRVSDEQLQKMRR | 0.308 |
| EEERQKKAEQWVHAYRHNNEDEIRQLADPNVRFNVGDTRITGRENVMKTLDDQMRHQRVRFHDIQIRVKGDKINITIDAEYESNGRPSRRTLSLEMHLHNGKISHARIDIQG | -0.128 |
| EEESAQEFMKNLNTGNFEELNKMADENARMQVGDKTFQGRHQIETLLKTLKKQIDHVSFKSVEMNGDKVDAKVVFQVNGQHFEVIVKVDVRGDRVTHVTYEFTNEDQEERFKRAVQ | 1.35 |
| EEESHQVAENIARILQTNDPRRLAELMDENARVRVGDTQLSGREDIEKQMDKEMKEIRVEIKNYEIDAKGEKIDIDVDQVFVHNGKPDRQRVKYDFDLRNGQIKRASVSVHK | -0.188 |
| EEETVKHLVQLFRTGDWDQLAKEMRDNVEVIIGDKRLHGRENAEQLARILKKHIDHQSYESMTFHNGKLVMKYEFVFNGRRVRARLVVNVHNGKIVNMQLDFTDPRDERLWKKVVE | 1.66 |
| EEETVKRMAEHVNHALQENDPKKMNDLFDENVQVDVGDTRIHGREDLTKYVKTFKQRVDQVEIQRVDVQGNTVVILMVLEHNGHRRQVVVIMHFHNGKVKEMRVTDK | 0.097 |
| EEEVAKHALEIMITGDPKQIKEMVDENAHVKVGNKEWHGREHMVHWAEQLHTQVDHREVRSMEVNGNTARVDLVVTINGHHIRFILRATIHNGRVQHLSLEVTNEEQQTQWERNLS | 0.075 |
| EEEVEDQAKKYAKALHDNDPKTLSKLADKDAEFRYGDHQFHGREEVEKHWEKELKEIEVDWRVVDVKAHNGQVRIRFQAHRHHNGDPKNDNRKASARVTNGRIKKIEWVEDH | -0.059 |
| EEEVEKAAERVAEVMKDNNPERVEELFDPNAHITVGDRTLHGREELSKHYKTMTDQWRIQIDRFSVEDHGSTVVIRIDFEADHDGRPEKREVIIKLSVSNGRVSWAIFKVDQ | 0.734 |
| EEEVKRKMKEYFDVARHGDPDRLREYVDENARIHIGDKVIHGMSDAADHLAQHYKEIRFDYTRIDVKAEGDQVKVDIDVVVNHNGRPEQVHLHWEARFTNGRVKHMKVQRQK | -0.108 |
| EEEVQHKIKQLLKNNDWTTLADQVDPNARMVVGDKTVTGREQIQTIARRIQERVDHVEFKQLTVQGDHIDVVMVVNINGEHIKMHFIFRVHNGHIKHVEMQATDPRDQKKLKDLLE | 1.54 |
| EEEVSKRAREFVEAYQTGNEDKMHRLVDENADAQYGDKHIHGMTEIKRHVKRLTEEIRVQVESMDVKANNGHVRVRVHLVLHINGNPIDVTVIIVMRFKNGTIRSVQFRMPEEARDTIRK | -0.077 |
| EEEVVKEVTKAAKTGNFEKLLRLADPNVEMRIGDKTFHGRTELKDALRDIKQNADHIELKSLDSHNGRLEVDLVVNVNGKDVRFILRVSVHNGRITQMSVESRDTDFKKVLDEMLG | 1.91 |
| EEHDERTMHRLVETNDWETISRNADKDVKFQVGNKSYHGKEEFTEVLRKITKRADHIEYRSFNSHNGRIDVDYVFVVNGKEVKVFVQIQVHNGRIKHMRMRATNPDQQQELVDQLS | 1.44 |
| EEHIKEVLDRVREAWRKNNPDDLKRNFDPNARFNIGNKRYHGMEHFVEDVARLLHEIHVEIHYHHITFDGNEARFSYDAVFNVDGRPIRDSMSRRVILHNGKIVDMKVDVDPKELDKKLK | -0.093 |
| EEHLESLVRNLEEAVKKGNPEEMKKNLDKNARMVYGDKRLHGMSDILTEIEKRREHMRLEHEVKSIDNQGNKAKVTARLDVNVNGHPVDVDFIIHIKVHNGHVLEIVYQLPPEAHEKLKT | -0.278 |
| EEHLKHVVEELWKAMQTGDEDKIRRNADPNAHFSIGDKVIQGRERFAQDVRQTYDEIRVDIKIHRMNIQGEKVKVRFTFEQKVNGKPRSDENSAENTLHNGKVEEMNITIDPDKQRKFES | -0.43 |
| EEHLKQTFKEYMENYRTGNEEQLHSMVDEEAKFSYGDKKIHGRTEAIKQLVRRREEMRWDVQIKDMEVHNGRIEVDARVRFKHNGQPDDQKVVFRAVIHNGRFKMISEQYQP | 0.376 |
| EEHLQERLTKLNEAEQKGDPKKILEQVDPNARVEVGDKTYHGMDRYARRVAKEMNEMRVEVHIKDLKVRGNNIHAEMSATHTKNGKPSHNEFTLVVVWNNGRVTSIVVTHKS | 0.717 |
| EEHLQKTVEEMIKLIRHGNEHKVQENIDPNARIVIGEKRIRGRETFAHLLSKRHKEQRYEVREIKLTVQGEKVKVSMDVVADINGKPIRFSIDMFLHASNGKVKDIQYRISEEQRDKQQG | -0.033 |
| EEHMEDSFRKWKDNLRTNDEKSLEKMADPNATFDVGDKRFRGMHKYVHDLVNTLRSMRVDIKINSIDVQGDKIKARAQATVYHNGRPQRYTFSFEIKINNGHIQRLVRKDDQ | -0.035 |
| EEHQQKLIEEVLKAMDSGDEDRIKELVDPNAEFHVGDKTWHGMQDWARHVREEVEQIDFTWVNMEIRVKNGTVIMKARFEETRDGQPRTQNVNLRARVHNGRLTSMENDQHG | 0.375 |

| Sequence | protease stability score |
| --- | --- |
| EEHQTKEWSKMLEVMTKGDKDKFRERADPNVRARVGDRTLHGWENVVRTELRRQHEISIDIHEMDVRSEGDKVVARYEFRQNQNGRPRRRDVTVTFRLHNGRLQEQHVQDTG | 0.148 |
| EEHVKHIVDQLIKVLQHNDEKLWERLVDPNAEIRVGDKSIRGRERFSEEVRRQKHQARMQWKSVQVDVHGDKAVLHFSAEFQVNGQPADFDVTMHIQVHNGTVKRMFVQVPEKDVQRKTS | 0.459 |
| EEHVLTRFNSNMSNNNFNHIRDMADENAKMRVGDQEYHGRDNIHRLLEELKTQADHIQVRDYNHRGEHVHVDVEMVINGQKLVARWHAEIKNGRIKEMVLQFTNEEQEKTVRKALR | 0.302 |
| EEHVMRIVTNQLEAIKHGDEDRVRDLADPNARFHVGDKSIHGMEKYANDLRSEMEHMQVEFNLQSVTVEGDKVVITFEAQFNQNGKPKNYREVFRVEAQGDKIKDYRQERKD | 0.001 |
| EEKAEELVERFITAIETNDPDEVVNNIDPNARLRVGDKHVSGRDHQRQQVEEQERHMRVKYQHVRIDVTGDHARVHVVQVDNHNGKPRRFKYSASFVVQGDKIKHASQTTTE | -0.163 |
| EEKATRIAHELLSAVERGDEDRAEENFDENAQFQVGDKDIHGREQMKHFVKTVKEQSRLDMHITDVQDRPGHANVKATAREDNNGNPNNIRITMRASVSNGRIQSMQINYTD | -0.638 |
| EEKIVDILERMVTALHTGDPDTVHENLDPNAHVVIGDKEFTGMDTMHRTLERQKKEIRIQINSYSVHAQGNKADIDIDMVNEHNGHPDRNRYRVDAKVHNGKIKQVRYEEVS | -0.38 |
| EEKLEEQVEELLKNLDTGDENRARQLADPNVRARVGDKEYHGMEQFIKDQMDQRRNARIEVKDLRSEHHGDKITVDLSYKAQHNGRPTTVQREVTFHAHNGKFRQMKIEQSG | -0.521 |
| EEKLRERIKKFIDIMQTGNPEELEKQADEDAHFEIGEKRVHGMDDYAKEVQRELEDAQVRINVDSVRASNGRVEAHATMSETRNGQPRTAELKLEAQFHNGRIKHVRLHKHQ | -0.059 |
| EEKNQEHAEQVFRAYKDGDPNQIQRLLDPNAHARIGDKQLHGREQAREIMHRLRRHLQMDLKLQDVKAEGDKLQLNARAKHDDNGRPNDVKITITFDLQNGRIKSMSVKMSG | 0.022 |
| EEKNQHVAQQWLEMVQNGDPRKAKQQFDKDARVKIGDKELNGREEIVRQFEREQREMRVDIKDYKIDVNGDKVTVRLHVEVQSNGTPTTRDYVVHMQVHNGRVQMVIFRSDG | 0.747 |
| EEKNRKVFEEAMKAFQTNDKDQAERMFDENATVKIGDQEIHGNKQIREHIRTMEEHMRLEIKSIDLKVSNGRVHANITFVEEHNGEPKTLRLHVRAEVDNGTIESMQFNDDG | 0.159 |
| EEKQDTRLEEFVSAVLKGDEQEAVDLADPNADMHIGEWHVRGREQIRKFIDQLRKRIRVQVDEMHVDNQGENVTVRATFVLDHNGVPMEFEIEYRLVVDNGRLKSVHARVPEEVKNRRRR | 0.294 |
| EEKQKTHVERFIEILREGDPQKAREMADKDAKFVYGDKSVHGMDEFRRQVERRNKQIHIDLKVREVDVHGNNVKIIIDAQEDHNGNPDSFKADMEVVYHNGRIKSASMDKQT | 0.074 |
| EENEVEKIMQVAHSGDFDSLVELADPNVTIKVGDKEWHGREHATEFFEKMKRHIDHVDVKSMSAQGDKITVRAHFNVNGDTLDFNLHIVISNGRIQSVKIQVTSHELRKTLTDQLG | 1.44 |
| EENNLELAHRVMENIQTNNPDEVVKQLDPNARIQVGDKVYHGREQARKMVEDLIDRLRVQIDSVDLEVQGDKAQLEFTQIEEHNGRPNSAKFIVDVTVHNGRVQNMEFREHK | 0.891 |
| EEQAQENLENLIRAIEHGDHKTAKELMDPNVKFHYGDKQYHGRERVTDFIRTVHEQMDVEIESFDLKLENGRAKAKMTAVYDVNGKPVKISVTYVATVHNGKVKHLQRRVDPSQQREVKG | 1.02 |
| EEQAVEVMNRYIRALQTGSKQDLRDNMDPNVKAIYGDSVIHGREEIARHLVKTMKDIRVENDVRDMRFDGDKIELRAKWVFEHDGRPRTNKYVVHAVAHDGKIKHINLQEDQ | -0.058 |
| EEQLKHRLRTYIEALQTGDEKKMVEMVDPNAHIRVGDSTIHGREELRKWVQHLQREIRFQVKIRSIDVSGEHLDVKAEVRYDFNGQPVRDTLNISAEASNGTFTDLRLHIDEDVLRKIKS | 1.16 |
| EEQVEELMHRIMTAIKTNNPDDLKRNIDPNAKIRIGDTVIHGMEEYVHQFEEEVKQLRIEIIDVQQDIKGDKVVVKIRFRRQHNGRPDETVTVFTAKMDNGKVKSLDFQEDG | 1.22 |
| EEQVRELLRKALEAKQEGDEKKLTKLFDPNAKVDVGDKTFHGMEDIARTIVTELKQIRVRLEIKHYSMRGDHLRVDAEVEEEHNGEPQTRRVIIYMHVQGDKITKQKIEDRQ | 1.08 |
| EERANDAARRFLEAIDRNNPDEAVKNFDPNARFRYGDKTVTGRTEVQELLEHLLKQMRITIQSVRVDARGDKVTVHLTVVVDVNGQPERHEMTVIANIHNGRIKEMEVRVDPDEQRERKR | 0.575 |
| EERDEAENAIRRFLEAVEEGDEDNLREQADPNAKFDVGDKTVHGMKSYARQQIEERERIDHVDYRISSVRLEGNRADVKVKFKARVDGRTKTATATINMQRHNGRMKIKEMKIN | 0.018 |
| EERDMEKMDTLVRDNDWKKMKNNVDPNAQVRIGEHEYTGKQQASTAFDILQKQVDHVDIHSFKNHGDQVEVHAILRYNGQNFQVNFRFRVHNGRFKKFSVEFTSEQQNKIMEEWLG | -0.039 |
| EEREVEEMQKILQHGDPKEFEDNMDPNADVEIGDQQYRGRETIAQVLQKFRDQIDHRHIEEVHIHGDHAVIDVVATVNGQDLKYIIVVKVENGKLKSARLQATDPRVKHRMQEVYE | 0.32 |
